Our source for the EC50 values is US12258396 (MEDICOVESTOR, dated 2025).

Bounds are passed on as bounds.

In general, EC50 refers to the concentration needed to bring the measured effect to its halfway point.

Assay [1] has as its target T1, human FRalpha expressed on cells (transfected HEK293 cells; SKOV3 human ovarian cancer cells) (human, UniProt P15328 25-234).
T1 construct: whole, on cells; also called human folate receptor alpha
Kind of assay: flow cytometry on SKOV3 human ovarian cancer cells that express FRalpha. As to the method: (§1) The affinity of each antibody was then assessed by flow cytometry. Briefly, HEK293 cells transfected to express FRalpha were washed with fluorescence-activated cell sorting (FACS) buffer, to which the IgGs were added at varying concentrations and incubated at 4 degrees Celsius for 60 minutes. The cells were then centrifuged and washed twice in FACS buffer. A phycoerythrin-labelled anti-human IgG, Fcgamma antibody (109-115-098; Jackson ImmunoResearch, Pennsylvania, United States) was then added to the cells at a 1:200 dilution and incubated at 4 degrees Celsius for 30 minutes. The cells were then washed, resuspended in FACS buffer, and counted by flow cytometry. Results are depicted in FIG. 4.
The flow cytometry experiment of the preceding paragraph was repeated with a human ovarian cancer cell line that expresses FRalpha, SKOV3. Results are depicted in FIGS. 5A and 5B. […] The antibody according to SEQ ID NO: 3-12 was then designated the lead antibody for further development.
(In flow cytometry, cells or beads pass a laser one at a time.)

The target of assay [2] is T2, fusion protein containing the extracellular domain of human FRalpha and a polyhistidine tag (human, UniProt P15328 25-233).
T2 construct: extracellular domain; Coated on ELISA plates; also called human FRalpha extracellular domain; not shown: polyhistidine tag
The assay can be described thus: ELISA, plate coated with human FRalpha ECD-His, anti-human-IgG-Fc-HRP detection. As to the method:
The affinity of each IgG1 for FRalpha was confirmed by ELISA. Briefly, a fusion protein containing the extracellular domain of human FRalpha and a polyhistidine tag was used to coat ELISA plates, which were washed three times with phosphate-buffered saline (PBS) containing 0.1 percent polysorbate 20 (PBST), then blocked with PBS containing 5 percent powdered milk (PBSM), and then washed three more times with PBST. Wells were then incubated with antibodies at varying concentrations for 60 minutes at room temperature in 1 percent PBSM. Wells were then washed three times with PBST, after which the secondary, horse-radish-peroxidase-conjugated antibody anti-human-IgG-Fc-HRP (ab97225, Abcam, United Kingdom) was added at a 1:8000 dilution in 1 percent PBSM for 50 minutes at room temperature. The wells were then washed six times with PBST, after which 3,3',5,5"-tetramethylbenzidine (TMB) was added. The reaction was stopped with 2 molar sulfuric acid, and the TMB diamine product was quantified at 450 nanometers in a plate reader. Results are depicted in FIG. 2.

Assay [3] concerns the target T3, fusion protein containing the extracellular domain of cynomolgus FRalpha and a polyhistidine tag (cynomolgus, UniProt A0A2K5U044 25-233).
T3 construct: extracellular domain; Coated on ELISA plates; also called cynomolgus FRalpha extracellular domain; not shown: polyhistidine tag
The assay can be described thus: ELISA, plate coated with cynomolgus FRalpha ECD-His, anti-human-IgG-Fc-HRP detection.

Assay [4] concerns the target T1, human FRalpha expressed on cells …. Kind of assay: flow cytometry on HEK293 cells transfected to express FRalpha, PE anti-human IgG Fcgamma detection. As to the method:
as §1

T1 sequence (P15328 25-234): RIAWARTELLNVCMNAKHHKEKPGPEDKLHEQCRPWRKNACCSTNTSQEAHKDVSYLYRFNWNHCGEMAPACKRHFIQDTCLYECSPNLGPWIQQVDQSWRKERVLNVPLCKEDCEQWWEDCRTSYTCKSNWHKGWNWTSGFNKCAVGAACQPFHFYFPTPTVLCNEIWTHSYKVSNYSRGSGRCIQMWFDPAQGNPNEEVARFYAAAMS
T2 sequence (P15328 25-233 limits assumed): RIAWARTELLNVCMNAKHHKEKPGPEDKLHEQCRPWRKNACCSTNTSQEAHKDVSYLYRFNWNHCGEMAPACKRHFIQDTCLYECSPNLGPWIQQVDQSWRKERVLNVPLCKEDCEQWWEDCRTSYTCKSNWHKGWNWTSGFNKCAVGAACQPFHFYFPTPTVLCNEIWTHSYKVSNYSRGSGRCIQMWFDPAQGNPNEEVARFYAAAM
T3 sequence (A0A2K5U044 entry or part of it): as the sequence (P15328 25-233 limits assumed) above, with I2T, W4R, R37K, A146P, H171Y counted along it

B1: lead fully-human anti-FRalpha IgG1 antibody (antibody according to SEQ ID NO: 3-12) (antibody, V domains shown)
VH: EVQLLESGGGLVKPGGSLRLSCAASGFTFSSYTMNWVRQAPGKGLEWVSSISSGGGYIYYADSVKDRFTISRDNAKNSLYLQMNSLRAEDTAVYYCAKGDTIMIISAWGQGTTVTVSS
VL: DIQLTQSPSTLSASVGDRVTITCRASQSISSWLAWHQQKPGKAPKLLIYAASSLQNGVPSRFSGSGFGTDFTLTISSLQPEDFATYYCQQASSFPLTFGGGTKVEIKR
notes: Fully human IgG1/kappa; also called lead antibody; lead anti-FRalpha antibody
Take B1: the EC50 was less than 1 nM in assay [1], approximately 0.05 nM in assay [2], approximately 0.06 nM in assay [3] and approximately 5 nM in assay [4].

B2: Mirvetuximab (antibody, V domains shown)
VH: QVQLVQSGAEVVKPGASVKISCKASGYTFTGYFMNWVKQSPGQSLEWIGRIHPYDGDTFYNQKFQGKATLTVDKSSNTAHMELLSLTSEDFAVYYCTRYDGSRAMDYWGQGTTVTVSS
VL: DIVLTQSPLSLAVSLGQPAIISCKASQSVSFAGTSLMHWYHQKPGQQPRLLIYRASNLEAGVPDRFSGSGSKTDFTLTISPVEAEDAATYYCQQSREYPYTFGGGTKLEIK
Take B2: the EC50 is approximately 0.12 nM in assay [2], approximately 0.16 nM in assay [3] and approximately 4 nM in assay [4].
